The record followed here is patent US7063946B2, “Methods, reagents, kits and apparatus for protein function analysis” (Meso Scale Technologies, LLC., priority 2001, dated 2006).

For assay [1], the system named is ubiquitin-proteasome system (N-end rule pathway) in reticulocyte lysate. Put plainly: ECL assay for ubiquitylation in reticulocyte lysate using Sulfo-TAG-labeled Ub, streptavidin-coated IPR plate. It is filed as biochemical, rabbit. The following applies: for IPR readings, Experiment 1 / IPR readings, Experiment 2: Sulfo-TAG-labeled Ub, reticulocyte lysate +. On the procedure:
(§1) Binding Buffer 2 (BB2) refers to 25 mM Tris-HCl buffer pH 7.4 containing 100 mM NaCl, 0.05 mM Na3VO4, 0.004% TritonX-100, 2 mM DTT and protease inhibitors (protease inhibitor cocktail, EDTA free, Roche Applied Science). Proteins were produced by coupled transcription/translation using TnT reaction mixes (Promega Corp, WI). The TNT Quick coupled transcription-translation system (Promega) contains rabbit reticulocyte lysate pre-mixed with most of the reaction components necessary to carry out transcription and translation in vitro (TNT mix), including all the amino acids except methionine. Unless otherwise noted, biotin-labeled in vitro translated proteins were produced in reaction mixtures that contained 8–30 μg/ml of a selected plasmid encoding protein of interest, 5 μl of TNT T7 Quick reticulocyte lysate mix (Promega Corp, WI) or TnT SP6 Quick Coupled Transcription/Translation System (Promega Corp, WI), 20 μM methionine, 50 μM MG-132 (Calbiochem, proteasome inhibitor to inhibit degradation of ubiquitylated proteins by proteasome) and 20 μg/ml biotinylated Lys-tRNA (transcend tRNA, Promega). The reactions were allowed to proceed for 20–90 min at 30° C. The reactions were stopped by the addition of BB1 supplemented with 20 mM AMP-PNP (Sigma, a non-hydrolyzable ATP analog), 20 mM N-ethylmaleimide (Sigma, an irreversible inhibitor of deubiquitylating enzymes) or, alternatively, by the addition of BB2. BB1 was used in screens involving the ubiquitination pathway. BB2 was used for other assay formats. The produced proteins were used in the assays of interest with or without further purification.
RGS4 was produced by transcription/translation of 30 μg/ml plasmid pcDNA3-RGS4 (Davydov and Varshavsky, 2000, J. Biol. Chem., 275:22931–22941) under the conditions described in Materials and Methods except for the addition of 1 μM Ub aldehyde (Calbiochem, to inhibit deubiquitylating enzymes) and 5 μM Sulfo-Tag-labeled Ub (having an average of 4.1 labels per Ub molecule). Then 3 μl of the reaction was mixed with 50 μl of BB1 in a 96-well streptavidin-coated non-plasma treated IPR (NPT IPR) plate.

Assay [2] relates to ubiquitylation in reticulocyte lysate. In words: ECL ubiquitylation assay using Sulfo-TAG-labeled FK2 antibody and streptavidin-coated IPR plate. It is filed as biochemical, rabbit. The procedure:
The protein was prepared as described Example 2 and mixed with 60 μg/ml Sulfo-TAG-labeled FK2 antibody (Affiniti) having 5.6 labels per antibody, in a streptavidin-coated NPT IPR plate.

The test system is the same in assay [3]. Put plainly: Ubiquitylation assay using Sulfo-TAG labeled FK2 antibody, streptavidin magnetic beads, M-8 Analyzer. It is filed as biochemical, rabbit. The procedure:
Transcription-translation reaction mixtures containing pcDNA3-RGS4 or pcDNA3-RGS4-C2V plazmids(Davydov and Varshavsky, 2000, J. Biol. Chem., 275:22931–22941) were prepared and used as described in the Example 2. The reaction products were mixed with 3 μg Sulfo-TAG labeled FK2 antibody in a 96-well plate in a binding buffer. Sulfo-TAG labeled FK2 antibody had 5.6 Sulfo-TAG labels per antibody molecule. […] Then 30 μl of BB1 supplemented with 20 mM AMP-PNP, 20 mM N-ethylmaleimide and containing 20 μg dynal beads streptavidin (Dynal) were added to each well, and the plate was left on the shaker at room temperature for another hour to allow for binding of biotinylated proteins to dynal beads. Thereafter the volume in each well was adjusted to 200 μl with BB1, and ECL signals were measured in M-8 Analyzer (IGEN International, Inc., Gaithersburg Md.).

Assay [4] concerns N-end rule pathway ubiquitylation in reticulocyte lysate. Put plainly: ECL ubiquitylation assay using Sulfo-TAG-labeled streptavidin and IPR plate coated with FK2 antibody. It is filed as biochemical, rabbit. The conditions noted are these: for IPR readings, Experiment 1 / IPR readings, Experiment 2: no dipeptide inhibitor. On the procedure:
as §1
Transcription-translation reaction mixtures were prepared as described in the Example 1 except that no labeled ubiquitin was added. Some reactions also contained 1 mM dipeptide inhibitor of the N-end rule pathway (either Arg-β-Ala, or Trp-Ala) together with 50 μM bestatin as indicated (Table 2). The reaction was allowed to proceed for 20 min at 30° C. Then 1 μl of the reaction was mixed with 50 μl of BB1 supplemented with 20 mM AMP-PNP, 20 mM N-ethylmaleimide, and 2 μg/ml Sulfo-TAG-labeled streptavidin in a well of an IPR plate coated with an anti-ubiquitin antibody (FK2 antibody, Affiniti). […] In a typical assay the presence of RGS4-encoding plasmid produced a 30–100 fold higher ECL signal compared to the empty vector (FIG. 2, Table 2). This signal was reduced 3–4 fold in the presence of Arg-β-Ala (a type 1 inhibitor of the N-end rule pathway), but not in the presence of Trp-Ala (a type 2 inhibitor of the N-end rule pathway) in agreement with the previous report that RGS4 is a type 1 N-end rule substrate in reticulocyte lysates (Davydov and Varshavsky, 2000, J. Biol. Chem., 275:22931–22941). In the same assay RGS4 produced 3–5 fold higher ECL signal compared to RGS4C2V, when the same amounts of the corresponding plasmids were added to the reaction mixtures (Table 2).

Assay [5] concerns ubiquitylation in reticulocyte lysate. In words: Ubiquitylation assay using Sulfo-TAG labeled Ub, streptavidin magnetic beads, M-8 Analyzer. It is filed as biochemical, rabbit. On the procedure:
Then 10 μl of the reaction product was mixed with 50 μl of BB1 supplemented with 20 mM AMP-PNP, 20 mM N-ethylmaleimide, and 20 μg streptavidin coated magnetic beads (Streptavidin Dyna-Beads, Dynal) in a 96-well plate. […] Thereafter the volume in each well was adjusted to 200 μl with binding buffer, and ECL signals were measured in M-8 Analyzer (IGEN International, Inc., Gaithersburg, Md.).

Assay [6] relates to pEY. Put plainly: In vitro kinase library screen: activity towards pEY. It is filed as biochemical. The conditions noted are these: 5 ul of expressed protein. The method in brief:
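Kinases made by in vitro transcription/translation, immobilised on streptavidin/avidin plates and washed with Tris/Triton and high-salt buffers. Incubated overnight at room temperature with 5 nM pEY, 100 µM ATP, Mg2+/Mn2+ and vanadate at pH 7.4. Phospho-pEY captured with biotinylated PY20 and detected by Sulfo-TAG anti-phosphotyrosine ECL.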

The target of assay [7] is T1, pY1068 peptide (SEQ ID NO: 7) (Homo sapiens, UniProt P00533).
T1 construct: phosphotyrosine at Tyr1068 (chemical modification); purchased New England Peptide, Fitchburg Mass; host or cells: chemical synthesis
Put plainly: 96-well screen for phosphopeptide binding proteins, 7-spot IPR plates. The conditions noted are these: two steps of normalization; top 9 clones. The procedure: A screen was conducted using 7-spot IPR plates. The 7 spot NPT IPR plates are described in more detail in copending Provisional Application No. 60/301,932 (entitled “Assay Plates, Reader Systems and Methods for Luminescence Test Measurements”, filed on Jun. 29, 2001, hereby incorporated by reference) and particularly in the description of Plate Type D in Example 6.1 (NPT IPR plate) and U.S. application Ser. Nos. 10/185,274 and 10/185,363, filed Jun. 28, 2002, each hereby incorporated by reference. These plates consist of a 96 wells with 7 zones (spots) for the immobilization of proteins or other reagents. Each spot was coated with BSA conjugated to either a single phosphopeptide or multiple phosphopeptides.
The plates were prepared essentially as described in example 12. The seven spots supported, respectively, the following BSA conjugates IkB, pY992, pY1068, pY1148, Myc, “A”, and “6-P”. “A” refers to a conjugate of BSA with multiple peptides: IkB, pY1148, Myc which were then coupled to BSA. “6-P” refers to a conjugate of BSA with the following multiple peptides: IkB, pY1148, pY992, pY1068, Smad3C.
For the assay, 4 ul from TnT reaction product described above were added to the coated plate containing 50 μl of binding buffer supplemented with 50 ng/well Ru-Streptavidin. The binding reaction was allowed to proceed at room temperature for 1 hour with constant shaking. […] The ECL signals were measured using an imaging plate reader (IPR). The raw data from the IPR reader was then normalized using two steps of normalization. The first round was based on the 50 lowest values for a given specific spot.

Assay [8] has as its system autophosphorylation (phosphotyrosine). Put plainly: In vitro kinase library screen: autophosphorylation. It is filed as biochemical. The method in brief: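 Biotinylated SYK and EphA7 from in vitro transcription/translation, immobilized on streptavidin/avidin plates; autophosphorylation overnight at room temperature with 5 mM MgCl2, 5 mM MnCl2, 100 μM ATP, pH 7.4. Phosphotyrosine detected by Sulfo-TAG anti-phosphotyrosine (45 min) and ECL read-out.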

B1: RGS4: Regulator of G-protein signaling 4, in vitro translated from plasmid pcDNA3-RGS4 (protein, UniProt P49798 1-205, looked up)
Regulator of G-protein …: MCKGLAGLPASCLRSAKDMKHRLGFLLQKSDSCEHNSSHNKKDKVVICQRVSQEEVKKWAESLENLISHECGLAAFKAFLKSEYSEENIDFWISCEEYKKIKSPSKLSPKAKKIYNEFISVQATKEVNLDSCTREETSRNMLEPTITCFDEAQKKIFNLMEKDSYRRFLKSRFYLDLVNPSSCGAEKQKGAKSSADCASLVPQCA
As to B1, the entries for the “IPR readings, Experiment 1” value in assay [1] and in assay [4] were 29294 and 23441, respectively. The “IPR readings, Experiment 2” value in assay [1] is 27303; in assay [4], 23137. The “fold higher ECL signal compared to RGS4C2V” value in assay [1] (same amounts of plasmids) is on record as 3–4 fold; in assay [4] (same amounts of plasmids) it was 3–5 fold. Further, the entries for the “fold higher ECL signal compared to the empty vector” value in assay [1] (typical experiment), in assay [2] (typical assay) and in assay [4] (typical assay) were 5–15 fold, 15–30 fold and 30–100 fold, respectively. Besides, in assay [2] (reticulocyte lysate +), the IPR readings came to 85993. This molecule also gave a M-8 readings in assay [3] of 187328. In assay [5], the “M-8 readings, Experiment 1” value was determined as 87339. Further, the “M-8 readings, Experiment 2” value in assay [5] is on record as 71463.

B2: RGS4-C2V: RGS4C2V mutant, in vitro translated from pcDNA3-RGS4-C2V (protein, UniProt P49798 1-205, looked up, variant C2V)
Regulator of G-protein …: MVKGLAGLPASCLRSAKDMKHRLGFLLQKSDSCEHNSSHNKKDKVVICQRVSQEEVKKWAESLENLISHECGLAAFKAFLKSEYSEENIDFWISCEEYKKIKSPSKLSPKAKKIYNEFISVQATKEVNLDSCTREETSRNMLEPTITCFDEAQKKIFNLMEKDSYRRFLKSRFYLDLVNPSSCGAEKQKGAKSSADCASLVPQCA
As to B2, in assay [1], the “IPR readings, Experiment 1” value stood at 7744 and the “IPR readings, Experiment 2” value is reported as 7614. In assay [3], this molecule displayed a M-8 readings of 14689. In assay [4], the “IPR readings, Experiment 1” value came to 5567 and the “IPR readings, Experiment 2” value came out at 5362. Further, in assay [5], the “M-8 readings, Experiment 1” value amounted to 30201 and the “M-8 readings, Experiment 2” value turned out to be 26712.

B3: 3919253: IMAGE clone protein: BMX non-receptor tyrosine kinase (protein)
chain: MDTKSILEELLLKRSQQKKKMSPNNYKERLFVLTKTNLSYYEYDKMKRGSRKGSIEIKKIRCVEKVNLEEQTPVERQYPFQIVYKDGLLYVYASNEESRSQWLKALQKEIRGNPHLLVKYHSGFFVDGKFLCCQQSCKAAPGCTLWEAYANLHTAVNEEKHRVPTFPDRVLKIPRAVPVLKMDAPSSSTTLAQYDNESKKNYGSQPPSSSTSLAQYDSNSKKIYGSQPNFNMQYIPREDFPDWWQVRKLKSSSSSEDVASSNQKERNVNHTTSKISWEFPESSSSEEEENLDDYDWFAGNISRSQSEQLLRQKGKEGAFMVRNSSQVGMYTVSLFSKAVNDKKGTVKHYHVHTNAENKLYLAENYCFDSIPKLIHYHQHNSAGMITRLRHPVSTKANKVPDSVSLGNGIWELKREEITLLKELGSGQFGVVQLGKWKGQYDVAVKMIKEGSMSEDEFFQEAQTMMKLSHPKLVKFYGVCSKEYPIYIVTEYISNGCLLNYLRSHGKGLEPSQLLEMCYDVCEGMAFLESHQFIHRDLAARNCLVDRDLCVKVSDFGMTRYVLDDQYVSSVGTKFPVKWSAPEVFHYFKYSSKSDVWAFGILMWEVFSLGKQPYDLYDNSQVVLKVSQGHRLYRPHLASDTIYQIMYSCWHELPEKRPTFQQLLSSIEPLREKDKH
In the case of B3, the HTS signal in assay [6] is 523,662. Moreover, the “normalized ECL signal, pY1068 spot” value in assay [7] came out at 3. Further, the ECL signal in assay [8] is recorded as 443,933.
